In patent US10808017B2, “Ubiquitin variants and uses therof as 53BP1 inhibitors” (The Governing Council of the University of Toronto, priority 2016, dated 2020):

Columns and labels:
53BP1 = target: T1, 53BP1 (Homo sapiens, UniProt Q12888); test: Flag co-immunoprecipitation from 293T cells; format: binding; conditions: Flag IP from transfected 293T cell extracts, immunoblot
T1 construct: endogenous in cells; host or cells: 293T
Experimental: FIG. 3. The i53 protein inhibits 53BP1. FIG. 3A-B, U2OS cells were transfected with vectors expressing i53, its 53BP1-binding deficient mutant (DM) or an empty vector (EV) control. Cells were then X-irradiated with a 10 Gy dose and processed for immunofluorescence with the indicated antibodies 1 h post-irradiation (IR). DAPI staining (not shown) was used to delineate the outline (dashed lines) of the cell nuclei. The region in the magnified inset is indicated with a square. Quantitation of the experiment is shown in panel (a) and data is indicated as the mean±s.e.m (N=3), whereas in (b) representative micrographs are shown. Arrowheads indicate Flag-positive cells. FIG. 3C, Parental or 53BP1ΔU2OS cells transfected with vectors expressing i53, the DM mutant or an empty vector (EV) control were irradiated (10 Gy) 1 h before being processed for immunofluorescence. Cell cycle stage was assessed by Cyclin A staining. The data is presented as the mean±s.e.m.; N=3. FIG. 3D, Immunoprecipitation (IP) of Flag-tagged proteins from extracts prepared from 293T cells transfected with vectors expressing Flag-i53 or the i53-DM mutant. Proteins were separated by SDS-PAGE and immunoblotted (IB) for Flag and 53BP1.
293T cells were transfected with 10 μg of pcDNA3-Flag-i53-derived plasmids using polyethylenimine (PEI). […]

[1] = tested on: MMEJ in U2OS EJ2-GFP cells; test: EJ2-GFP reporter assay for MMEJ; format: cell-based; conditions: GFP-positive cells 48 h post-transfection, N=4
Experimental: FIG. 8 (Related to FIG. 3.) FIG. 8A, Immunoblots of whole cell lysates prepared from U2OS DR-GFP cells transfected with vectors expressing Flag-tagged i53, its DM mutant or an empty vector along with an I-SceI expression vector and probed with the indicated antibodies. FIG. 8B, U2OS DR-GFP cells were transfected with the vectors expressing Flag-tagged i53 or the DM mutant along with an I-SceI expression vector. Cells were treated either with DMSO (−) or 1 μM SCR7 (+). The percentage of GFP-positive cells was determined 48 h post-transfection for each condition and was normalized to the DM condition (mean±s.d., N=4). FIG. 8C, Control immunoblot of the experiment shown in (b). FIG. 8D, Immunoblots of whole cell lysates prepared from U2OS DR-GFP cells transfected with the indicated siRNAs along with an I-Scel expression vector and probed with the indicated antibodies. […] The percentage of GFP-positive cells was determined 48 h post-transfection for each condition and was normalized to the empty vector condition (mean±s.d., N=4). […]
The direct repeat (DR)-GFP assay to measure the frequency of HR and the strand annealing EJ2-GFP assay to measure the frequency of MMEJ were performed as previously described. […] 48 h post-plasmid transfection, the cells were trypsinized and the percentage of GFP-expressing cells was analyzed using the BD FACSCalibur flow cytometer.

RPL24 = target: T2, RPL24 (Homo sapiens, UniProt P83731); test: Flag IP-MS of i53/i53-DM baits: prey RPL24; format: binding; conditions: 293T Flp-In/T-Rex extracts, LC-MS/MS, one column per replicate IP
T2 construct: endogenous in cells; host or cells: HEK293 Flp-In/T-REx
Experimental: (§1) Following immunoprecipitation of Flag-tagged i53 and i-53-DM from HEK293 Flp-In/T-REx cells, peptides were identified using LC-MS/MS. Proteins were digested in solution with trypsin (Sigma, T7575-1KT) and dried to completeness. For LC-MS/MS analysis, peptides were reconstituted in 5% formic acid and loaded onto a 12-15 cm fused silica column with pulled tip packed in-house with 3.5 μm Zorbax C18 (Agilent Technologies, Calif., USA).
(§2) i53 and i53-DM precipitates were analyzed using an LTQ (Thermo Scientific) coupled to an Agilent 1100 Series HPLC (Agilent Technologies). Peptides were eluted from the column using a 90 min period cycle with a linear gradient from 0% to 40% ACN in 0.1% formic acid. Tandem MS spectra were acquired in a data-dependent mode for the top 5 (LTQ) most abundant ions using collision-induced dissociation. Acquired spectra were searched against the human Refseq_V53 database using Mascot (Matrix Science).
(§3) 293T Flp-In/T-Rex cell lines were generated that expressed Flag-tagged i53 or i53-DM under the control of a tetracycline-inducible promoter as previously described. Nine IP-MS experiments were analyzed (3 biological replicate IPs each for control i53- and i53-DM expressing cell lines). The interacting proteins were identified by MASCOT to identify high-confidence interactors for i53. […]

RPS24 = target: T3, RPS24 (Homo sapiens, UniProt P62847); test: Flag IP-MS of i53/i53-DM baits: prey RPS24; format: binding; conditions: 293T Flp-In/T-Rex extracts, LC-MS/MS, one column per replicate IP
T3 construct: endogenous in cells; host or cells: HEK293 Flp-In/T-REx
Experimental: as §1, §2, §3

ARFGAP2 = target: T4, ARFGAP2 (Homo sapiens, UniProt Q8N6H7); test: Flag IP-MS of i53/i53-DM baits: prey ARFGAP2; format: binding; conditions: 293T Flp-In/T-Rex extracts, LC-MS/MS, one column per replicate IP
T4 construct: endogenous in cells; host or cells: HEK293 Flp-In/T-REx
Experimental: as §1, §2, §3

RPL10 = target: T5, RPL10 (Homo sapiens, UniProt P27635); test: Flag IP-MS of i53/i53-DM baits: prey RPL10; format: binding; conditions: 293T Flp-In/T-Rex extracts, LC-MS/MS, one column per replicate IP
T5 construct: endogenous in cells; host or cells: HEK293 Flp-In/T-REx
Experimental: as §1, §2, §3

RPS29 = target: T6, RPS29 (Homo sapiens, UniProt P62273); test: Flag IP-MS of i53/i53-DM baits: prey RPS29; format: binding; conditions: 293T Flp-In/T-Rex extracts, LC-MS/MS, one column per replicate IP
T6 construct: Following immunoprecipitation of Flag-tagged i53 and i-53-DM from HEK293 Flp-In/T-REx cells, peptides were identified using LC-MS/MS; endogenous in cells; host or cells: HEK293 Flp-In/T-REx cells
Experimental: as §1, §2, §3

T4 sequence (Q8N6H7 whole entry): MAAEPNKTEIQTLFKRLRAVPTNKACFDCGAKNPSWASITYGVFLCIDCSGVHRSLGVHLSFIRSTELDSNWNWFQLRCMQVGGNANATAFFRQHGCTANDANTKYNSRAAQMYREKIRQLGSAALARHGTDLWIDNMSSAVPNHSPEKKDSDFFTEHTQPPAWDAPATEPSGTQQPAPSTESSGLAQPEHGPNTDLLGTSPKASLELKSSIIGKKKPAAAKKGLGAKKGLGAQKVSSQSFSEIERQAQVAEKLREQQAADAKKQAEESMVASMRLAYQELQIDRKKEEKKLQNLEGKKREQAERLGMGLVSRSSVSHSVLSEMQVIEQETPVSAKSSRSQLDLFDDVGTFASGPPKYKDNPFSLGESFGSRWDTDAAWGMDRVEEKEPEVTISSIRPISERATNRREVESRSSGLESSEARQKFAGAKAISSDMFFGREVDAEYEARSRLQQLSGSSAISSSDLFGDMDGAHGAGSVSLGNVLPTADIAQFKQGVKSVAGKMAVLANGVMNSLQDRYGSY
T1 sequence (Q12888 whole entry): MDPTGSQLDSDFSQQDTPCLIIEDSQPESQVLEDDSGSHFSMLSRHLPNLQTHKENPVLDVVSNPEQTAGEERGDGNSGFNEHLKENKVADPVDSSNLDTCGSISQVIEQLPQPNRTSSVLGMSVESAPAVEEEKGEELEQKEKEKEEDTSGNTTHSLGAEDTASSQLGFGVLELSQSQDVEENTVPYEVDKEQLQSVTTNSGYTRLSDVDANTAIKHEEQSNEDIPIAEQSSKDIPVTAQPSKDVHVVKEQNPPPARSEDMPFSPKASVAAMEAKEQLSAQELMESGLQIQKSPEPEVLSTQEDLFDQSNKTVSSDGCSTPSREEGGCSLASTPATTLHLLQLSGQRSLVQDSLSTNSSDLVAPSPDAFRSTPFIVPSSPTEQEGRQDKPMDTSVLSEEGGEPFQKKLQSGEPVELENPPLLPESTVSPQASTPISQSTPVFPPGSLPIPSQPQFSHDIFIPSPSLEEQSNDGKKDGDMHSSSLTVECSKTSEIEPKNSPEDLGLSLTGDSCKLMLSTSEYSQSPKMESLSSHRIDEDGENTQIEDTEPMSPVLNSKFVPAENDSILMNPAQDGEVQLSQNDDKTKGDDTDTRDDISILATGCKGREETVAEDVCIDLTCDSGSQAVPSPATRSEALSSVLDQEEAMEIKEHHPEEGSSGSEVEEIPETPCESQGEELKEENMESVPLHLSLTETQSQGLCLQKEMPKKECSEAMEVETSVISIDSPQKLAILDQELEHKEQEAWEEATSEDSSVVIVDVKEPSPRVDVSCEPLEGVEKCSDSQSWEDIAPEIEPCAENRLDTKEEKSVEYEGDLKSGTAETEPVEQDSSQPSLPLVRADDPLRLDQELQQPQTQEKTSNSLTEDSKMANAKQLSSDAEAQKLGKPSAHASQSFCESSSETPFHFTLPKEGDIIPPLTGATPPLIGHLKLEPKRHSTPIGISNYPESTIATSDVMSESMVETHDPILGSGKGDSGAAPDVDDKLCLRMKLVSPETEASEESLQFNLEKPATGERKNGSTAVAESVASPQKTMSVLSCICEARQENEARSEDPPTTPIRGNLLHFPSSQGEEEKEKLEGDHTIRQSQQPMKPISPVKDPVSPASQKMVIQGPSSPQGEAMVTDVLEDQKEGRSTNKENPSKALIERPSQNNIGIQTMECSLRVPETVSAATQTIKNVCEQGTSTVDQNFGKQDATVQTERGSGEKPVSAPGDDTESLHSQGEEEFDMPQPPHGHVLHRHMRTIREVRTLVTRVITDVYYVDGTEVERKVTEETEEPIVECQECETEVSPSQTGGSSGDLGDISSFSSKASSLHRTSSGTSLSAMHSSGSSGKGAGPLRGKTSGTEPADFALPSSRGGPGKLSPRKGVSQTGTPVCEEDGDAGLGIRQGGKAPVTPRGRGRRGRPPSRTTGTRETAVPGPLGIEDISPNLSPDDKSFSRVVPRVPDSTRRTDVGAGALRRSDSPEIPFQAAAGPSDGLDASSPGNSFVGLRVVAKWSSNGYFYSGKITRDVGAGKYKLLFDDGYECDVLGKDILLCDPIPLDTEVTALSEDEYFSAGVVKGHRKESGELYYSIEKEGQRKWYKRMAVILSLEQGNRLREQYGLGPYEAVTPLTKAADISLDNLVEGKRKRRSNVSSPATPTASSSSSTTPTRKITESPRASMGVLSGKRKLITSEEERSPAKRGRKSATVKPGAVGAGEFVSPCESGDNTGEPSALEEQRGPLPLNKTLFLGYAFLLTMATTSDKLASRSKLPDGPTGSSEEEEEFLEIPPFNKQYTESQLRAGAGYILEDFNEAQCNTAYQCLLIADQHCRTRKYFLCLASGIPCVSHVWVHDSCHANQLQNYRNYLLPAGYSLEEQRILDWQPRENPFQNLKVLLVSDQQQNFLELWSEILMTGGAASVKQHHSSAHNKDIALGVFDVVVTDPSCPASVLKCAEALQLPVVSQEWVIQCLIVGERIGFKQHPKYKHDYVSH

Substance	Retrieval of 53BP1 in co-immunoprecipitation (53BP1)	Increase in MMEJ over the empty vector [1]	Total peptides, RPL24 (RPL24)	Total peptides, RPS24 (RPS24)	Total peptides, ARFGAP2 (ARFGAP2)	Total peptides, RPL10 (RPL10)	Total peptides, RPS29 (RPS29)
i53: UbvG08 with C-terminal di-glycine removed and I44A mutation; genetically encoded inhibitor of 53BP1	efficiently retrieved 53BP1	1.4+/−0.15 fold	5	–	–	–	–
i53-DM: 53BP1-binding deficient mutant of i53 (P69L, L70V)	–	1.3+/−0.1 fold	5	4	3	11	3
